Results: patent publication US20220298218A1 (ANTAG THERAPEUTICS, published 2022)
Where two headings read alike, the source gives them in different places. Where no end group is shown, it is not given here. The star is where a group is joined. C16 diacid = O=C(O)CCCCCCCCCCCCCCC(=O)*

How the values were obtained:
human GIP receptor [1] = target: T1, human GIP receptor (human, UniProt P48546 22-466); test: cell-based or functional assay
T1 sequence (looked up): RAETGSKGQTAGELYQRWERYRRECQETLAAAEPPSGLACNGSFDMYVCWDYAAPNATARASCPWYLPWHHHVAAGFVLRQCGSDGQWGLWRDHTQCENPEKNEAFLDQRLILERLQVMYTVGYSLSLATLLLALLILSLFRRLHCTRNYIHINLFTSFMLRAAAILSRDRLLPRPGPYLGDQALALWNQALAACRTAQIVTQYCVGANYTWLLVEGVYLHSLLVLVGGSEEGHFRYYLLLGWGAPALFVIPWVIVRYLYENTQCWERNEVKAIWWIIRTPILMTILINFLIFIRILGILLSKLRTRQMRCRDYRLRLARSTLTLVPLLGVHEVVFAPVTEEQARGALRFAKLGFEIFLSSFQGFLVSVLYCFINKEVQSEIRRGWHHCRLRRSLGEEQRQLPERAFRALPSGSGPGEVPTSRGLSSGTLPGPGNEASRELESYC

human GIP receptor [2] = target: T1, human GIP receptor; test: cell-based or functional assay; remark: listed apart in the source

B1: AT449 (peptide)
peptide: EGTFISDYSIAMDKIK(C16 diacid)QQDFVNWLLAQKGKKN-OH
modifications: N-terminus assumed
SMILES: CC[C@H](C)[C@H](NC(=O)[C@H](CO)NC(=O)[C@H](Cc1ccc(O)cc1)NC(=O)[C@H](CC(=O)O)NC(=O)[C@H](CO)NC(=O)[C@@H](NC(=O)[C@H](Cc1ccccc1)NC(=O)[C@@H](NC(=O)CNC(=O)[C@@H](N)CCC(=O)O)[C@@H](C)O)[C@@H](C)CC)C(=O)N[C@@H](C)C(=O)N[C@@H](CCSC)C(=O)N[C@@H](CC(=O)O)C(=O)N[C@@H](CCCCN)C(=O)N[C@H](C(=O)N[C@@H](CCCCNC(=O)CCCCCCCCCCCCCCC(=O)O)C(=O)N[C@@H](CCC(N)=O)C(=O)N[C@@H](CCC(N)=O)C(=O)N[C@@H](CC(=O)O)C(=O)N[C@@H](Cc1ccccc1)C(=O)N[C@H](C(=O)N[C@@H](CC(N)=O)C(=O)N[C@@H](Cc1c[nH]c2ccccc12)C(=O)N[C@@H](CC(C)C)C(=O)N[C@@H](CC(C)C)C(=O)N[C@@H](C)C(=O)N[C@@H](CCC(N)=O)C(=O)N[C@@H](CCCCN)C(=O)NCC(=O)N[C@@H](CCCCN)C(=O)N[C@@H](CCCCN)C(=O)N[C@@H](CC(N)=O)C(=O)O)C(C)C)[C@@H](C)CC
For B1, the “cAMP agonism % Emax” value (human GIP receptor [1]) was 0%, the “cAMP antagonism” value (human GIP receptor [1]) was 5.84 nM and the “cAMP antagonism % inhib” value (human GIP receptor [1]) was 89%. For the same binder, the “cAMP antagonism pIC50” value (human GIP receptor [1]) was 8.2, the “cAMP agonism Emax” value (human GIP receptor [2]) was 8.6 and the “cAMP antagonism” value (human GIP receptor [2]) was 4 nM. The “cAMP antagonism % inhib” value (human GIP receptor [2]) was 95% and the cAMP antagonism log (human GIP receptor [2]) was -8.4 log M.

B2: AT450 (peptide)
peptide: EGTFISDYSIAMDKIK(C16 diacid)QQDFVNWLLAQKGKKND-OH
modifications: N-terminus assumed
SMILES: CC[C@H](C)[C@H](NC(=O)[C@H](CO)NC(=O)[C@H](Cc1ccc(O)cc1)NC(=O)[C@H](CC(=O)O)NC(=O)[C@H](CO)NC(=O)[C@@H](NC(=O)[C@H](Cc1ccccc1)NC(=O)[C@@H](NC(=O)CNC(=O)[C@@H](N)CCC(=O)O)[C@@H](C)O)[C@@H](C)CC)C(=O)N[C@@H](C)C(=O)N[C@@H](CCSC)C(=O)N[C@@H](CC(=O)O)C(=O)N[C@@H](CCCCN)C(=O)N[C@H](C(=O)N[C@@H](CCCCNC(=O)CCCCCCCCCCCCCCC(=O)O)C(=O)N[C@@H](CCC(N)=O)C(=O)N[C@@H](CCC(N)=O)C(=O)N[C@@H](CC(=O)O)C(=O)N[C@@H](Cc1ccccc1)C(=O)N[C@H](C(=O)N[C@@H](CC(N)=O)C(=O)N[C@@H](Cc1c[nH]c2ccccc12)C(=O)N[C@@H](CC(C)C)C(=O)N[C@@H](CC(C)C)C(=O)N[C@@H](C)C(=O)N[C@@H](CCC(N)=O)C(=O)N[C@@H](CCCCN)C(=O)NCC(=O)N[C@@H](CCCCN)C(=O)N[C@@H](CCCCN)C(=O)N[C@@H](CC(N)=O)C(=O)N[C@@H](CC(=O)O)C(=O)O)C(C)C)[C@@H](C)CC
With B2 the “cAMP agonism % Emax” value (human GIP receptor [1]) was 0%, the “cAMP antagonism” value (human GIP receptor [1]) was 2.29 nM and the “cAMP antagonism % inhib” value (human GIP receptor [1]) was 97%. For the same binder, the “cAMP antagonism pIC50” value (human GIP receptor [1]) was 8.6, the “cAMP agonism Emax” value (human GIP receptor [2]) was 5.8 and the “cAMP antagonism” value (human GIP receptor [2]) was 3 nM. The “cAMP antagonism % inhib” value (human GIP receptor [2]) was 57% and the cAMP antagonism log (human GIP receptor [2]) was -8.5 log M.
